# Experimental data from the supplement of paper PMC12636428.
# Tested on: Saccharomyces cerevisiae
# Test: transcriptional activation domain activity (GFP:mCherry ratio, weighted mean of sorted bins, harmonized to initial dataset scale) (arbitrary fluorescence ratio units); higher = stronger transcriptional activation
# Settings: beta-estradiol 1 µM; induction time 4 h
# Summary of the method: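 Barcoded protein tiles fused to an estradiol-inducible synthetic transcription factor were integrated at the yeast URA3 locus, in diploids carrying a GFP reporter. Cultures were diluted 1:5 into SC with 1 uM beta-estradiol, held 4 hours at 30 °C, sorted into 8 bins by GFP:mCherry ratio, and barcodes sequenced. Tiles under 50 reads were discarded. Activation activity is the read-weighted mean of bin median fluorescence, averaged across barcodes, then linearly mapped onto the initial dataset scale.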
row,Sequence,transcriptional activation domain activity
1,MSFLYFIRCFVSFHLELLDCYYMMIECLFIFLIFCITICLPFICLYSLLVECF,49800
2,GRRRVWTSLLDRGAGGEGGAGYVCGVTIDEGSNISGDHIQSTCILVDEYCELC,74500
3,SLLMLLFIRGWFSYLIAVVSISGVLVLHMLYFLLQWRLKYILWLLLHCSIAIP,79500
4,GGAAGARKGAKRPKRAVGGAAAAAGGKKSADSDDEKPKEKSAPSGGGSKVGGI,36600
5,YAEWLIEPEQNNGTWVADVLWPAINLDLQWISLHWNQSSWDLWWPPVWGGSYW,53200
6,FVVLLYQSIFVLSLWLLPVFFKSHIKSLSYKSQVDTSIHVVSMFQCLLILYLI,50200
7,MSFFWDTSLCACVTRIREMSFWEFLVGLAFFFFFLVKGSCICVACFFFFFFWS,34200
8,ALDDKGNRDAFYSVLVNLMSKLCWAIVQYLESNSLRATYVIEARISEYTKFSI,42500
9,FYPIGRRWQWYWGLWVCACALISLFSNIEVDRYYLQSLPITITIFFWYLMCMG,28200
10,LHFMYVVAIKDRKAWVGYSAAELCMVGFWNLIVVWLKLLVPWRFFRLWALADG,61900
11,IYVIGCQPRFKTKLVEDKAEKRKCRIVLVPIFSETGVLVLLNIRTLEVRTVRF,51700
12,FRFLLKLLLVHGRWNYIRTCKYTLGTFWKEMLFYLTQALYQRWAGYTGTSLYE,54800
13,WIQCTIPGYVSNFAYGLASGFTVTLNTAVLMEIVFHSKSYRILILSLFTTLYV,61400
14,MDTLSSSFAHILCIFFYLHPFLLFFSFSLFPFFVFATPATRTGVRLFYFFFLF,41600
15,SLYLCLGMLYLRKNPLLKEPLTLEHIKARLLGHWGSDAGQIFTYIHFNRLIKK,69300
16,EPPPPPPEPEPQPPPKAEPPPEPEPEPVPKAEAPPPPPREEPPPPKKAPPPPK,44000
17,PRQMCRLYRAGYGLFYNQFCAYIDIAFCMMLCQWNLDILETLRYRLEFGRYLA,71100
18,KGIAGLGPTKTIGLFVVLYIATAIFVFVYIVMQFLLVFGTLTERWPAGHLAFC,52200
19,GGGGQKRKAGAAQDDASSQQPKKKKAKKGGKGKGAQQQKQQGGASGSGGGQAS,31500
20,YYGWLPFGISSILVEIPYCMFFCASFMCGFYWTAGLVNHPVNCGYFYLMLMFF,69900
21,FFFFLLLLLLFFFLLRFLLLVYYYPNHPTHTYQPISFQFQPTHQIHHNALQHH,32200

row,Sequence,transcriptional activation domain activity
1,VFLGMLFWHCRNYLTSYHYLFSTLAIWVLSYIMRLFYLNWSNPWRMSWLIGDE,58300
2,LIYQKLPRVLKRPGWNFHPAVALTFSILLFAAYPLICFFNILIAWSNEVSFHN,54300
3,NVSPGTTDAGPWMRAIEELAGTGVYEHLGYGWKGWLFWLRDRSFCNMLMTGIW,54200
4,MVKGRGRGGQVLFLFLFLLLFFLFLFLSLFLFILFFLALFFWTFFVLFCFVWG,66200
5,LGVFGVALYVLSFFENFDSCHWCFHYDLWSPMAYILMRYSIEAILWSSRLALF,70600
6,RTSEMIMGFFFKNIVWTFVLFWYQIFCQFNGSMMFEYVLVALYNLIFTSLPII,62900
7,PLSLLIYFLEWIGPLNLWIRCLCKTSLIEFYFRLLVILLMPFLFVFWHIIGLG,40100
8,QGFMNVTFTNGRKYEALSKQLIFIVHAIFMAANDHVGYILLRALRVYMELDVY,69900
9,HRRHHVLLPHPAHTLLKGCFEPAFHNSIWHILSCHMYIPCTPILLLLIIQHVL,33200
10,PNVFGLMLFELGLGFWIKTDYYYMLICLSVSSLVFRAEISLLSGLLVLQDIFL,66400
11,SHFLPLLLFLSLSFILFSFPFILPFSLISLFSYFFLPFLHISTLFHSYFSFLL,47400
12,DDDKKETGAFTHQWILLAKSRASHILLCITYFYASVLAVVSVGSVNWRNVAVK,63000
13,MCYQGQHVYLNHEVFAQSLLAVGFARCQVRLMWVAGIRPIVRVSTNNFLGSIR,44800
14,MNDKVVSCETRRRRKAREGREKRGKGEERGEKREGRRERGEREREKRKERGRE,25300
15,QTTLRAVVSSKEAGVIIGKGGKNVADLRDETGVKAGVSKVVQGVHDRVLTITG,51200
16,RLNFLLFCLSLFLSLYFFPFCLLFFLFSLSSFLFCLPSFLSLLSSFFFFFVSL,57200
17,LSSSSSVQTSAATTVVLVSGSDDKLVKAAGDALRARLGVKGGGKGQKWSGKFT,17600
18,YPNLSGNTFICSSRGSITGRMTVSGDDFIASQYDYSYSHVWRNLGILIAFWIF,53500
19,MFAHFFFLRACCCPLPFFFCGYVFLIFSSPFSCFCFLCFWFCCFFFSVCFLLF,58700
20,RRLAGLLRHLQHRTREMGGHIVLIADPTQVCFVLLRPIIKKPALPAELVRKFW,44800
21,ILKRNMYFIIPLLLLLLGTVALAIYDTIWLLMRTYARGHLSHSHRFWSLLFYS,55700

row,Sequence,transcriptional activation domain activity
1,VLLLKTLLSPVVVPDLDDHSLVLKQFKTFHWQRKNLTSVINILAQALYSLFAA,27800
2,PSEKPANGAKGKGGKPRGKSGEKDNGAAEFGADPKNADKKSSNESSGAKSRPK,37900
3,LCIGIVLIAAFIAYEYLMVSGRVLARHLPHQKSMLPWELITNKDLGLLFYVNF,44400
4,MYHIVIIIPLCLLLFGPFILATDSPFCIVRHPFFFFFLFYQSFIAFTFFFFFT,62700
5,LWPLPVITRYIIGISLLVSMLNFMGLLHLKCSSPSYVIHRLEIANLLMSPFLF,46200
6,MGSDPFGGLNLFSTALFPLYLYCLTLDPPNYSNWLIFLSQHFLFSGLFRVLCF,56600
7,RDALSGDPTAPRKRSKVSRACDECRRKKIRCDASSESGIEQCSSCKRVGSKCS,43500
8,EAGNERRESSRRHDDTERRERRRHRSHDRGHDRERRHRRHRRSRSRDRDGGRE,34300
9,TKAATGGTASSSKPQLAVQKKQQPAEGKKQPVTQKLPPAAAQKLQQKAPATAA,29300
10,IKLMDLLIILLKIHGFRLKYFLLTNDLFPKIMLLCRANHLSLQLCPVRFLRIC,81100
11,LFSLCFSEICTLFLLLMCQGIDLLDPGVRLINWKVSLWLLLATILVFIPLSYS,43900
12,SFVAYFSALWRGKQHRMTGYPVYDFFMGAELNPRMFGILDFKMFFEVRMPWYI,51000
13,REGGGEGGGAQDGSSAPKKKRLGRKERIKSKAAGGDTGGEGADGAAASPEGAG,39600
14,SSLMQYTLGATIGFVQSLEVRTQVLHLLVKLFQSLPQPDHFSIAQCYVYLNAP,57200
15,EAPAAEPVKETETAAEAAPAEAPAEAAAEETKEEKKEEKKEEKVKASKVGRRL,44900
16,SQPSDTIRKRTAGDDGALDQTENTSISPKKRRTEDHTKGEEDEGERGVGNSGT,22200
17,VTCGLLKVAIDLINHFPLFALVLRVKDPRRLPGSTYFRVIHDKGQTILMLEVD,40300
18,VVDHCVSRFSGFTFLFFVLFTAFYMWQIISFVLGVLRLVDMYNFYTHLLKIPD,54300
19,GGERREREEGTERREKEEAGRRRRESGRGQEGKKRGEGGGGRKKRGRDGGGPG,38500
